Results from the supplement of paper PMC10201428.
± gives the standard deviation of the averaged measurements.

What was measured:
[1] = test system: VchCAST RNA-guided transposition machinery (E. coli BL21(DE3) host, lacZ target); experiment: relative integration efficiency (T-RL orientation) vs wild-type transposon end (log2 (normalized fold change)); transposon end mutated: right end (5 bp flank + 75 bp right end); higher = more efficient transposition
Outline: (§1)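 Relative integration efficiency is a fold change of output over input barcode abundance, normalised to reference barcodes and log-transformed. Input plasmids and genomic integration junctions were PCR-amplified and Illumina-sequenced from E. coli BL21(DE3) co-transformed with a T7-driven effector plasmid and pUC57 donor pools of 1549 left-end or 1849 right-end transposon variants. Plating was done with 0.1 mM IPTG at 37°C for 18 h, with two biological output replicates and four reference barcodes.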

[2] = test system: VchCAST RNA-guided transposition machinery (E. coli BL21(DE3) host, lacZ target); experiment: relative integration efficiency (T-LR orientation) vs wild-type transposon end (log2 (normalized fold change)); transposon end mutated: right end (5 bp flank + 75 bp right end); higher = more efficient transposition
Outline: as §1

Sequence: ACATTTGTTGATACAACCATAAAATCATCATTACCCCCATCAATTGATAATTATCCCACCCCATTTAACTATAACGCTCTGATCATAGTCAGACCAACATTGCTACGACCCGTATTCGCACCGACAC
- relative integration efficiency (log2) [1]: -5.09 ± 0.14
- relative integration efficiency (log2) [2]: -1.6 ± 0.036

Sequence: ACATTTGTTGATACAACCATAAAATCATCATTCACCCATAAATTGATAATTATCACACCCACATTTAACTATAACGCTCTGATCATAGTCAGACCAACATTGCTACGACCCGTATTCGCACCGACAC
- relative integration efficiency (log2) [1]: -5.68 ± 0.095
- relative integration efficiency (log2) [2]: -1.73 ± 0.67

Sequence: ACATTTGTTGATACAACCATAAAATCATCATTCACCCCTAAATTGATAATTATCACACCCACATTTAACTATAACGCTCTGATCATAGTCAGACCAACATTGCTACGACCCGTATTCGCACCGACAC
- relative integration efficiency (log2) [1]: -5.66 ± 0.14
- relative integration efficiency (log2) [2]: -1.37 ± 0.066

Sequence: ACATTTGTTGATACAACCATAAAATCATTATTACACCCATTAATTGATAATTATCACACCCAATTTAACTATAACGCTCTGATCATAGTCAGACCAACATTGCTACGACCCGTATTCGCACCGACAC
- relative integration efficiency (log2) [1]: -3.73 ± 0.33
- relative integration efficiency (log2) [2]: 0.129 ± 0.18

Sequence: ACATTTGTTGATACAACCATAAAATCTATATTACACCCATAAATTGATAATTATCACACCCATAAATTGATATTGCCTCTGATCATAGTCAGACCAACATTGCTACGACCCGTATTCGCACCGACAC
- relative integration efficiency (log2) [1]: -1.55 ± 0.21
- relative integration efficiency (log2) [2]: -1.85 ± 0.057

Sequence: ACATTTGTTGATACAACCATAAAATCTTAATTACACCCATAAATTGATAATTATCACACCCATAAATTGATATTGCCTCTGATCATAGTCAGACCAACATTGCTACGACCCGTATTCGCACCGACAC
- relative integration efficiency (log2) [1]: -1.973 ± 0.011
- relative integration efficiency (log2) [2]: -1.09 ± 0.22

Sequence: ACATTTGTTGATACAACCATAAAATGAAAATTACACCCATAAATTGAAAATTATCACACCCATAAATTGAAATTGCCTCTGATCATAGTCAGACCAACATTGCTACGACCCGTATTCGCACCGACAC
- relative integration efficiency (log2) [1]: -1.13 ± 0.26
- relative integration efficiency (log2) [2]: 0.0682 ± 0.25

Sequence: ACATTTGTTGATACAACCATAAAATGAATATTACACCCATAAATTGATAATTATCACACCCATAAATTGATATTGCCTCTGATCATAGTCAGACCAACATTGCTACGACCCGTATTCGCACCGACAC
- relative integration efficiency (log2) [1]: -0.772 ± 0.072
- relative integration efficiency (log2) [2]: -0.52 ± 0.4

Sequence: ACATTTGTTGATACAACCATAAAATGAATTAATCACCCATAAATTGAATTAATTCACACCCATAAATTGAATAACGCTCTGATCATAGTCAGACCAACATTGCTACGACCCGTATTCGCACCGACAC
- relative integration efficiency (log2) [1]: -2.34 ± 0.14
- relative integration efficiency (log2) [2]: -1.25 ± 0.054

Sequence: ACATTTGTTGATACAACCATAAAATGAATTATACACCCATAAATTGATAATTATCACACCCATAAATTGATATTGCCTCTGATCATAGTCAGACCAACATTGCTACGACCCGTATTCGCACCGACAC
- relative integration efficiency (log2) [1]: -0.7 ± 0.18
- relative integration efficiency (log2) [2]: -0.0536 ± 0.3

Sequence: ACATTTGTTGATACAACCATAAAATGAGAATTACACCCATAAATTGAGAATTATCACACCCATAAATTGAGATTGCCTCTGATCATAGTCAGACCAACATTGCTACGACCCGTATTCGCACCGACAC
- relative integration efficiency (log2) [1]: -1.04 ± 0.13
- relative integration efficiency (log2) [2]: -0.085 ± 0.14

Sequence: ACATTTGTTGATACAACCATAAAATGAGCATTACACCCATAAATTGATAATTATCACACCCATAAATTGATATTGCCTCTGATCATAGTCAGACCAACATTGCTACGACCCGTATTCGCACCGACAC
- relative integration efficiency (log2) [1]: -0.394 ± 0.049
- relative integration efficiency (log2) [2]: -0.621 ± 0.017

Sequence: ACATTTGTTGATACAACCATAAAATGAGCCGGCACAAACGCCCGGTCGCCGGCGACACAAACGCCCGGTCGCGGTAAGAGGATCATAGTCAGACCAACATTGCTACGACCCGTATTCGCACCGACAC
- relative integration efficiency (log2) [1]: -3.42 ± 0.22
- relative integration efficiency (log2) [2]: -0.24 ± 0.25

Sequence: ACATTTGTTGATACAACCATAAAATGAGCCGGCCACCCATAAATTGAGCCGGCTCACACCCATAAATTGAGCGGTACTCTGATCATAGTCAGACCAACATTGCTACGACCCGTATTCGCACCGACAC
- relative integration efficiency (log2) [1]: -4.23 ± 0.084
- relative integration efficiency (log2) [2]: -1.65 ± 0.23

Sequence: ACATTTGTTGATACAACCATAAAATGAGCCGTACACCCATAAATTGATAATTATCACACCCATAAATTGATATTGCCTCTGATCATAGTCAGACCAACATTGCTACGACCCGTATTCGCACCGACAC
- relative integration efficiency (log2) [1]: -0.359 ± 0.21
- relative integration efficiency (log2) [2]: -0.26 ± 0.5

Sequence: ACATTTGTTGATACAACCATAAAATGATAAAAACACCCATAAATTGATAATTATCACACCCATAAATTGATATTGCCTCTGATCATAGTCAGACCAACATTGCTACGACCCGTATTCGCACCGACAC
- relative integration efficiency (log2) [1]: -0.347 ± 0.089
- relative integration efficiency (log2) [2]: -0.253 ± 0.4

Sequence: ACATTTGTTGATACAACCATAAAATGATAAAATCACCCATAAATTGATAAAATTCACACCCATAAATTGATATACGCTCTGATCATAGTCAGACCAACATTGCTACGACCCGTATTCGCACCGACAC
- relative integration efficiency (log2) [1]: -1.05 ± 0.087
- relative integration efficiency (log2) [2]: -0.368 ± 0.21

Sequence: ACATTTGTTGATACAACCATAAAATGATAAAATGACCCATAAATTGATAATTATCACACCCATAAATTGATATTGCCTCTGATCATAGTCAGACCAACATTGCTACGACCCGTATTCGCACCGACAC
- relative integration efficiency (log2) [1]: -0.49 ± 0.13
- relative integration efficiency (log2) [2]: 0.143 ± 0.81

Sequence: ACATTTGTTGATACAACCATAAAATGATAAATACACCCATAAATTGATAAATATCACACCCATAAATTGATATAGCCTCTGATCATAGTCAGACCAACATTGCTACGACCCGTATTCGCACCGACAC
- relative integration efficiency (log2) [1]: -0.443 ± 0.15
- relative integration efficiency (log2) [2]: 0.037 ± 0.84

Sequence: ACATTTGTTGATACAACCATAAAATGATAAATACACCCATAAATTGATAATAATGACACCGAATTTAACTATAACGCTCTGATCATAGTCAGACCAACATTGCTACGACCCGTATTCGCACCGACAC
- relative integration efficiency (log2) [1]: -1.36 ± 0.43
- relative integration efficiency (log2) [2]: 2.26 ± 0.23

Sequence: ACATTTGTTGATACAACCATAAAATGATAAATACACCCATAAATTGATAATGATGACACCGAATTTAACTATAACGCTCTGATCATAGTCAGACCAACATTGCTACGACCCGTATTCGCACCGACAC
- relative integration efficiency (log2) [1]: -0.862 ± 0.42
- relative integration efficiency (log2) [2]: 2.71 ± 0.18

Sequence: ACATTTGTTGATACAACCATAAAATGATAAATACACCCATAAATTGATAATTGTGACACCGAATTTAACTATAACGCTCTGATCATAGTCAGACCAACATTGCTACGACCCGTATTCGCACCGACAC
- relative integration efficiency (log2) [1]: -0.896 ± 0.3
- relative integration efficiency (log2) [2]: 2.56 ± 0.14

Sequence: ACATTTGTTGATACAACCATAAAATGATAACACCCATAAATTGATAATTATCACACCCATAAATTGATATTGCCTCTGATCATAGTCAGACCAACATTGCTACGACCCGTATTCGCACCGACACTGA
- relative integration efficiency (log2) [1]: -3.99 ± 0.2
- relative integration efficiency (log2) [2]: -1.25 ± 0.2

Sequence: ACATTTGTTGATACAACCATAAAATGATAAGGACACCCATAAATTGATAATTATCACACCCATAAATTGATATTGCCTCTGATCATAGTCAGACCAACATTGCTACGACCCGTATTCGCACCGACAC
- relative integration efficiency (log2) [1]: -0.956 ± 0.034
- relative integration efficiency (log2) [2]: -0.358 ± 0.15

Sequence: ACATTTGTTGATACAACCATAAAATGATAAGGCAACCCATAAATTGATAATTATCACACCCATAAATTGATATTGCCTCTGATCATAGTCAGACCAACATTGCTACGACCCGTATTCGCACCGACAC
- relative integration efficiency (log2) [1]: -0.5904 ± 0.00039
- relative integration efficiency (log2) [2]: -0.414 ± 0.36

Sequence: ACATTTGTTGATACAACCATAAAATGATAAGGCACAAACGCCCGGTCGCCGGCGACACAAACGCCCGGTCGCGGTAAGAGGATCATAGTCAGACCAACATTGCTACGACCCGTATTCGCACCGACAC
- relative integration efficiency (log2) [1]: -2.28 ± 0.27
- relative integration efficiency (log2) [2]: 1.225 ± 0.01

Sequence: ACATTTGTTGATACAACCATAAAATGATAAGGCCACCCATAAATTGATAAGGCTCACACCCATAAATTGATATGTACTCTGATCATAGTCAGACCAACATTGCTACGACCCGTATTCGCACCGACAC
- relative integration efficiency (log2) [1]: -1.42 ± 0.28
- relative integration efficiency (log2) [2]: -0.158 ± 0.46

Sequence: ACATTTGTTGATACAACCATAAAATGATAAGTACACCCATAAATTGATAAGTATCACACCCATAAATTGATATGGCCTCTGATCATAGTCAGACCAACATTGCTACGACCCGTATTCGCACCGACAC
- relative integration efficiency (log2) [1]: -0.35 ± 0.029
- relative integration efficiency (log2) [2]: 0.407 ± 0.12

Sequence: ACATTTGTTGATACAACCATAAAATGATAATAACACCCATAAAATGATAATTATCACACCCAATTTAACTATAACGCTCTGATCATAGTCAGACCAACATTGCTACGACCCGTATTCGCACCGACAC
- relative integration efficiency (log2) [1]: -0.0962 ± 0.22
- relative integration efficiency (log2) [2]: 3.211 ± 0.011

Sequence: ACATTTGTTGATACAACCATAAAATGATAATAACACCCATAAATTGATAATAATCACACCCATAAATTGATATTCCCTCTGATCATAGTCAGACCAACATTGCTACGACCCGTATTCGCACCGACAC
- relative integration efficiency (log2) [1]: -0.389 ± 0.15
- relative integration efficiency (log2) [2]: -0.098 ± 0.26

Sequence: ACATTTGTTGATACAACCATAAAATGATAATATCACCCATAAATTGATAATATTCACACCCATAAATTGATATTCGCTCTGATCATAGTCAGACCAACATTGCTACGACCCGTATTCGCACCGACAC
- relative integration efficiency (log2) [1]: -0.471 ± 0.0068
- relative integration efficiency (log2) [2]: -0.639 ± 0.0008

Sequence: ACATTTGTTGATACAACCATAAAATGATAATATCACCCATAAATTGATAATTATCACACCCATAAATTGATATTGCCTCTGATCATAGTCAGACCAACATTGCTACGACCCGTATTCGCACCGACAC
- relative integration efficiency (log2) [1]: -0.188 ± 0.066
- relative integration efficiency (log2) [2]: -0.505 ± 0.091

Sequence: ACATTTGTTGATACAACCATAAAATGATAATATGTCCCATAAATTGATAATTATCACACCCATAAATTGATATTGCCTCTGATCATAGTCAGACCAACATTGCTACGACCCGTATTCGCACCGACAC
- relative integration efficiency (log2) [1]: -1.29 ± 0.17
- relative integration efficiency (log2) [2]: -0.96 ± 0.27

Sequence: ACATTTGTTGATACAACCATAAAATGATAATCACCCATAAATTGATAATTATCACACCCATAAATTGATATTGCCTCTGATCATAGTCAGACCAACATTGCTACGACCCGTATTCGCACCGACACTG
- relative integration efficiency (log2) [1]: -4.33 ± 0.1
- relative integration efficiency (log2) [2]: -1.91 ± 0.79

Sequence: ACATTTGTTGATACAACCATAAAATGATAATGACACCCATAAATTGATAATGATCACACCCATAAATTGATATTTCCTCTGATCATAGTCAGACCAACATTGCTACGACCCGTATTCGCACCGACAC
- relative integration efficiency (log2) [1]: -0.238 ± 0.065
- relative integration efficiency (log2) [2]: 0.195 ± 0.093
